In paper PMC10388305, “Synthesis and Evaluation of a Monomethyl Auristatin E—Integrin αvβ6 Binding Peptide–Drug Conjugate for Tumor Targeted Drug Delivery” (Journal of Medicinal Chemistry, 2023):
Where two headings read alike, the source gives them in different places.

Test: Biodistribution, BxPC-3 pancreatic xenograft tumor mouse model
Format: in vivo, mice
Settings: female, athymic nude, iv, total radioactivity, γ-counter, mean ± SD; for tissue uptake at 4 h / tissue uptake at 24 h / tissue uptake at 48 h: i.v.
Experimental: All animal procedures conformed to the Animal Welfare Act and were approved by the University of California Davis Institutional Animal Care and Use Committee. All mice used for in vivo work were female athymic nude mice (6–8 weeks old) purchased from Charles River Laboratories (Wilmington, MA). For PET imaging and biodistribution studies, female athymic nude mice (6–8 weeks old) were injected subcutaneously with 3 × 10^6 DX3puro and 3 × 10^6 DX3puroβ6 cells in serum free DMEM on the right and left flank, respectively, or with 5 × 10^6 BxPC-3 cells in serum free RPMI 1640/Matrigel (1/1 v/v). Studies commenced once tumors reached a maximum diameter of ∼0.5 cm, approximately 3 weeks after inoculation. Food and water were available ad libitum. [^64Cu]PDC-1 was formulated in isotonic 0.9% saline to pH = 7.2 and administered intravenously (i.v.) via a catheter into the tail vein.
Aliquots of the formulated [^64Cu]PDC-1 in isotonic 0.9% saline (4.81–5.74 MBq, 1.7–2.1 μg, 0.26–0.31 nmol, 100 μL, pH 7.2) were injected i.v. as described above. Following the conscious uptake period, the mice were anesthetized (5% isoflurane), euthanized, and dissected (n ≥ 3/model/time point [4, 24, and 48 h]; the 48 h time point also included the imaging animals sacrificed after the PET scans). Tissues were collected, washed, weighed, and radioactivity measured in a γ-counter. Calibrated, decay-corrected radioactivity was expressed as the percentage of injected dose per gram of tissue (% ID/g). Data are reported as mean ± SD. […] For in vivo blocking studies, DOTA-2 (50 mg/kg, 205 nmol, 1.4 mg in 100 μL 0.9% saline) was injected i.v. into two animals/tumor model 10 min prior to [^64Cu]PDC-1. The animals were sacrificed after 4 h, tissues collected, washed, weighed, and radioactivity measured in a γ-counter.
Biodistribution data of [64Cu]PDC-1 in BxPC-3 tumor model.
Table S4. Biodistribution of [ 64Cu]PDC-1 in mice bearing a BxPC-3 xenograft tumor. Tissue uptake is
expressed as the mean of the percentage of injected dose per gram of tissue ± standard deviation (n = 4/
time point; n = 6 at 48 h); an = 3, bn = 5.

SMILES: CC[C@H](C)[C@@H]([C@@H](CC(=O)N1CCC[C@H]1[C@H](OC)[C@@H](C)C(=O)N[C@H](C)[C@@H](O)c1ccccc1)OC)N(C)C(=O)[C@@H](NC(=O)[C@H](C(C)C)N(C)C(=O)OCc1ccc(NC(=O)[C@H](CCCNC(N)=O)NC(=O)[C@@H](NC(=O)CCOCCOCCNC(=O)CCN2C(=O)CC(SC[C@H](NC(=O)CN3CCN(CC(=O)O)CCN(CC(=O)O)CCN(CC(=O)O)CC3)C(=O)NCCOCCOCCOCCOCCOCCOCCOCCOCCOCCOCCOCCOCCOCCOCCOCCOCCOCCOCCOCCOCCOCCOCCOCCOCCOCCOCCOCCOCCC(=O)N[C@@H](CC(N)=O)C(=O)N[C@@H](C)C(=O)N[C@H](C(=O)N3CCC[C@H]3C(=O)N[C@@H](CC(N)=O)C(=O)N[C@@H](CC(C)C)C(=O)N[C@@H](CCCNC(=N)N)C(=O)NCC(=O)N[C@@H](CC(=O)O)C(=O)N[C@@H](CC(C)C)C(=O)N[C@@H](CCC(N)=O)C(=O)N[C@H](C(=O)N[C@@H](CC(C)C)C(=O)N[C@@H](C)C(=O)N[C@@H](CCC(N)=O)C(=O)N[C@@H](CCCNC(=N)N)C(=O)N[C@H](C(=O)N[C@@H](C)C(=O)N[C@@H](CCCNC(=N)N)C(=O)N[C@H](C(=O)NCCOCCOCCOCCOCCOCCOCCOCCOCCOCCOCCOCCOCCOCCOCCOCCOCCOCCOCCOCCOCCOCCOCCOCCOCCOCCOCCOCCOCCC(N)=O)[C@@H](C)O)C(C)C)C(C)C)C(C)C)C2=O)C(C)C)cc1)C(C)C (stereo partly drawn) [[^64Cu]PDC-1, metal not drawn]
- tissue uptake at 4 h (BxPC-3 (αvβ6 +) tumor, 4 h p.i., n = 3, read-out: BxPC-3 (αvβ6 +) tumor uptake): 4.61 ± 1.44 %ID/g
- tissue uptake at 24 h (BxPC-3 (αvβ6 +) tumor, 24 h p.i., n = 4, read-out: BxPC-3 (αvβ6 +) tumor uptake): 3.73 ± 0.44 %ID/g
- tissue uptake at 48 h (BxPC-3 (αvβ6 +) tumor, 48 h p.i., n = 6, read-out: BxPC-3 (αvβ6 +) tumor uptake): 2.93 ± 0.8 %ID/g
- tissue uptake at 4 h (bladder, 4 h p.i., n = 4, read-out: Bladder uptake): 2.06 ± 0.2 %ID/g
- tissue uptake at 24 h (bladder, 24 h p.i., n = 4, read-out: Bladder uptake): 1.84 ± 0.45 %ID/g
- tissue uptake at 48 h (bladder, 48 h p.i., n = 6, read-out: Bladder uptake): 1.28 ± 0.46 %ID/g
- tissue uptake at 4 h (blood, 4 h p.i., n = 4, read-out: Blood uptake): 0.13 ± 0.02 %ID/g
- tissue uptake at 24 h (blood, 24 h p.i., n = 4, read-out: Blood uptake): 0.31 ± 0.04 %ID/g
- tissue uptake at 48 h (blood, 48 h p.i., n = 6, read-out: Blood uptake): 0.28 ± 0.04 %ID/g
- tissue uptake at 4 h (bone, 4 h p.i., n = 4, read-out: Bone uptake): 0.36 ± 0.1 %ID/g
- tissue uptake at 24 h (bone, 24 h p.i., n = 4, read-out: Bone uptake): 0.43 ± 0.03 %ID/g
- tissue uptake at 48 h (bone, 48 h p.i., n = 6, read-out: Bone uptake): 0.23 ± 0.11 %ID/g
- tissue uptake at 4 h (brain, 4 h p.i., n = 4, read-out: Brain uptake): 0.04 %ID/g
- tissue uptake at 24 h (brain, 24 h p.i., n = 4, read-out: Brain uptake): 0.08 ± 0.01 %ID/g
- tissue uptake at 48 h (brain, 48 h p.i., n = 6, read-out: Brain uptake): 0.08 ± 0.03 %ID/g
- tissue uptake at 4 h (gall bladder, 4 h p.i., n = 4, read-out: Gall bladder uptake): 3.99 ± 1.49 %ID/g
- tissue uptake at 24 h (gall bladder, 24 h p.i., n = 4, read-out: Gall bladder uptake): 2.88 ± 1.31 %ID/g
- tissue uptake at 48 h (gall bladder, 48 h p.i., n = 6, read-out: Gall bladder uptake): 1.46 ± 1.09 %ID/g
- tissue uptake at 4 h (heart, 4 h p.i., n = 4, read-out: Heart uptake): 0.79 ± 0.11 %ID/g
- tissue uptake at 24 h (heart, 24 h p.i., n = 4, read-out: Heart uptake): 0.89 ± 0.13 %ID/g
- tissue uptake at 48 h (heart, 48 h p.i., n = 6, read-out: Heart uptake): 0.79 ± 0.07 %ID/g
- tissue uptake at 4 h (kidney, 4 h p.i., n = 4, read-out: Kidney uptake): 50.4 ± 3.08 %ID/g
- tissue uptake at 24 h (kidney, 24 h p.i., n = 4, read-out: Kidney uptake): 41.6 ± 11.8 %ID/g
- tissue uptake at 48 h (kidney, 48 h p.i., n = 6, read-out: Kidney uptake): 21.5 ± 7.01 %ID/g
- tissue uptake at 4 h (large intestines, 4 h p.i., n = 4, read-out: Lg. Intestines uptake): 5.49 ± 0.47 %ID/g
- tissue uptake at 24 h (large intestines, 24 h p.i., n = 4, read-out: Lg. Intestines uptake): 5.21 ± 0.82 %ID/g
- tissue uptake at 48 h (large intestines, 48 h p.i., n = 6, read-out: Lg. Intestines uptake): 2.78 ± 1.08 %ID/g
- tissue uptake at 4 h (liver, 4 h p.i., n = 4, read-out: Liver uptake): 1.51 ± 0.29 %ID/g
- tissue uptake at 24 h (liver, 24 h p.i., n = 4, read-out: Liver uptake): 1.95 ± 0.33 %ID/g
- tissue uptake at 48 h (liver, 48 h p.i., n = 6, read-out: Liver uptake): 1.8 ± 0.3 %ID/g
- tissue uptake at 4 h (lung, 4 h p.i., n = 4, read-out: Lung uptake): 2.44 ± 0.3 %ID/g
- tissue uptake at 24 h (lung, 24 h p.i., n = 4, read-out: Lung uptake): 2.3 ± 0.04 %ID/g
- tissue uptake at 48 h (lung, 48 h p.i., n = 6, read-out: Lung uptake): 1.67 ± 0.42 %ID/g
- tissue uptake at 4 h (muscle, 4 h p.i., n = 4, read-out: Muscle uptake): 0.8 ± 0.09 %ID/g
- tissue uptake at 24 h (muscle, 24 h p.i., n = 4, read-out: Muscle uptake): 0.68 ± 0.06 %ID/g
- tissue uptake at 48 h (muscle, 48 h p.i., n = 6, read-out: Muscle uptake): 0.44 ± 0.09 %ID/g
- tissue uptake at 4 h (pancreas, 4 h p.i., n = 4, read-out: Pancreas uptake): 0.32 ± 0.09 %ID/g
- tissue uptake at 24 h (pancreas, 24 h p.i., n = 4, read-out: Pancreas uptake): 0.46 ± 0.04 %ID/g
- tissue uptake at 48 h (pancreas, 48 h p.i., n = 6, read-out: Pancreas uptake): 0.47 ± 0.06 %ID/g
- tissue uptake at 4 h (skin, 4 h p.i., n = 4, read-out: Skin uptake): 1.92 ± 0.5 %ID/g
- tissue uptake at 24 h (skin, 24 h p.i., n = 4, read-out: Skin uptake): 1.41 ± 0.25 %ID/g
- tissue uptake at 48 h (skin, 48 h p.i., n = 6, read-out: Skin uptake): 0.79 ± 0.19 %ID/g
- tissue uptake at 4 h (small intestines, 4 h p.i., n = 4, read-out: Sm. Intestines uptake): 3.98 ± 0.54 %ID/g
- tissue uptake at 24 h (small intestines, 24 h p.i., n = 4, read-out: Sm. Intestines uptake): 2.85 ± 0.31 %ID/g
- tissue uptake at 48 h (small intestines, 48 h p.i., n = 6, read-out: Sm. Intestines uptake): 1.5 ± 0.23 %ID/g
- tissue uptake at 4 h (spleen, 4 h p.i., n = 4, read-out: Spleen uptake): 0.19 ± 0.02 %ID/g
- tissue uptake at 24 h (spleen, 24 h p.i., n = 4, read-out: Spleen uptake): 0.52 ± 0.09 %ID/g
- tissue uptake at 48 h (spleen, 48 h p.i., n = 6, read-out: Spleen uptake): 0.43 ± 0.08 %ID/g
- tissue uptake at 4 h (stomach, 4 h p.i., n = 4, read-out: Stomach uptake): 8.73 ± 0.66 %ID/g
- tissue uptake at 24 h (stomach, 24 h p.i., n = 4, read-out: Stomach uptake): 5.94 ± 0.9 %ID/g
- tissue uptake at 48 h (stomach, 48 h p.i., n = 6, read-out: Stomach uptake): 2.78 ± 0.79 %ID/g
- excreta dose per gram or mL at 4 h (urine, 4 h p.i., n = 4): 15.3 ± 1.2 %ID/g
- excreta dose per gram or mL at 24 h (urine, 24 h p.i., n = 4): 4.81 ± 0.84 %ID/g
- excreta dose per gram or mL at 48 h (urine, 48 h p.i., n = 5): 2.04 ± 0.97 %ID/g
